For 23 sequences, protein production results are on record in a protein production outcome set (Wang et al. 2014).

This series in a line: label from the status in PepcDB records.
Regarding “MADMESLDTAEMQEAAEKQAALFPNGGKSAEPTAAKHTATGLADGNKKPPVSNSFLDKFFQISKRGSTLAREFRGGLVTFFTMAYIVILNPLILGGFSAENAPTDVAGGWLSAAQVGAVTGLTAGVMTIIFGLVANLPFGLAAGLGINSFLAVAVIQEVTWPEAMGLVVINGILIVLFGATGARTAIFKAVPKELKAAITVGIGLFIAFIGFVDSGFVRATTGGPPVQLGDNGSITSIPTLVFIVGLLTMGILVARKIQGGLLIGIVATTVLAAVVEAVFHIGPGSADNPGGWHLNVPILSSQLVSVPDLSLVGQFDLFGSFARIGGLAATMLVFTLVFTNFFDAMGTMTGLAKSAGVAHKDGTFPKLKSAFIVEGMGAVVGGATSGSSNTVYIDSAAGIGEGARTGLASVVTGLLFLGSMFFTPLTSVVPLEVAAAALVVVGAMMMAQIREIKFTKFSIALPAFLTIVTMPLTYSIANGIGVGFISFAVISAASGKAKKVHPLMWVVTAGFIIYFARGPINALMGV”, the protein production result was “failed”.
Under “MSQAISLNQSTWASKLKAMGPGILMATAAVGGSHIVSSTQAGGSYGWSLLLLVILANVFKYPFFRFGAEYTADTGKTLVEGYAEKGKLYLWIFFILNVFSAMVNTAGVAILCSAIIASAFPMIGLSITQWSLILVAIIWAMLLFGGYKLLDGMVKWIMSALTIATVLAVIIAAVKHPEYSSDFVEKTPWQMAALPFIVSLLGWMPAPIEISAINSLWSAEKRKTVNFNTEDALFDFNTGYIGTAILAVFFVALGALIQYPTGQAVEAASAKYISQFVGMYASVLGEWSRYLITFIAFLCIFGTVITVIDGYSRVNQESLRLLISQKEDNRKSLNIWMTITAIIGIVIIKFFAGQVSTMLRFAMIGSFLTTPFFALLNYALVTRENKNLPSWLKHLAIAGLIFLFGFAIFFIYALAIGKAG” stands “failed”; under “MSVKLRLPQSAYPIFDRIEEMAWARHYQQIVREEKETELADDLEKGLPQHLFESLCIDHLQRHGANKQAISHAFDDDVEFQERMAEHIRYMAETIAHHQVDIDLEDLEHHHHHH”, “not failed”; under “STGSATTTPIDSLDDAYITPVQIGTPAQTLNLDFDTGSSDLWVFSSETTASEVDGQTIYTPSKSTTAKLLSGATWSISYGDGSSSSGDVYTDTVSVGGLTVTGQAVESAKKVSSSFTEDSTIDGLLGLAFSTLNTVSPTQQKTFFDNAKASLDSPVFTADLGYHAPGTYNFGFIDTTAYTGSITYTAVSTKQGFWEWTSTGYAVGSGTFKSTSIDGIADTGTTLLYLPATVVSAYWAQVSGAKSSSSVGGYVFPCSATLPSFTFGVGSARIVIPGDYIDFGPISTGSSSCFGGIQSSAGIGINIFGDVALKAAFVVFNGATTPTLGFASK”, “not failed”.
Next, “MNETINYDSLLILSVVAFFTPFLVSRLKRVNIPYQVGEIFIGILLGKSFLNIIKPDIWILFLSNLGLAYLMFLSGLAIDFDELKPKEGELLKDSKLFTSIKMFIVSIITAIILSFTLKFAGISEGYIFFALLFTAAAPGLLVPILKTKHIINSSYGQTLLVFGIITQLVSLIGVTFVASVAVNGITLKSFTFLIIFAVAIVVYFLSKIIFKVHDFSTIAFKNLHLSVRGAFVLVLVLVAVAEKVDSEIILGSFLAGMVFSLIVGKAKEEISHQLDVVGYGFLIPIFFIMVGVNVDLKAVVENPQSIAKIPLFILIFFLVKFIPSLLLKKKYGKRNSLAASMLLTAQLSLVIVGSQMALNLGYITAADYSAFVVTTVITCIFFPILFEKLITLNGDTNDTVEEDEKIIIREVLVSSQWYIGKALKDCKLPTGCRIFSMVRDDHEFMPNANTILEENDLVILAGVKHDVNETLNMLSTCDLTLPEE”: “failed”.
Regarding “ITERKQIEEALQKSGQRLRMTLESTSTNWWERDLITDQADWSEQSDHLLGYTPDSYEKNQDTFYKLVHPDDREHVQAGVNLAIATGEPYQGEFRLVQADGNCIWILGTGHVEYNEAGQPVRMSGLNIN”, the protein production entry is listed as “failed”.
Next, “MNSIRSSPAIGENRTVYIGSYDGKLYAFNPDGTLKWSYTTGNQITGSATIGADGTICIGSYDRRLYTINPDGTLKWSYTTGNQIFSSAAIGEDGTIYVGSRDNKLYALNPDGTLKWSYTTGNQIFSSAAIGEDLEHHHHHH”: “failed”; “MSLDKGDKAPDFALPGKTGVVKLSDKTGSVVYLDFWASWCGPCRQSFPWMNQMQAKYKAKGFQVVAVNLDAKTGDAMKFLAQVPAEFTVAFDPKGQTPRLYGVKGMPTSFLIDRNGKVLLQHVGFRPADKEALEQQILAALGGNEGHHHHHH”: “not failed”; “MFWTELCFILVALMIGARIGGVFLGMVGGLGVGVMVFIFGLTPSTPPIDVILIILSVVLAAASLQASGGLDLLVKLAEKILRRHPRYITLLAPFICYIFTFMSGTGHVVYSLLPVISEVARDSGIRPERPLSISVIASQQAITASPISAAMAAMIGLMAPLGVSISTIMMICVPATLIGVAMGAIATFNKGKELKDDPEYQRRLAEGLIKPAQKESKNTVVTSRAKLSVALFLTSAIVIVLLGLIPALRPMVETAKGLQPLSMSAAIQITMLSFACLIVLLCRPQVDQIISGTVFRAGALAIVCAFGLAWMSETFVNGHIALIKAEVQTLLQQHTWLIAIMMFFVSAMVSSQAATTLILLPLGLALGLPAYALIGSWPAVNGYFFIPVAGQCLAALAFDDTGTTRIGKYVLNHSFMRPGLVNVIVSVIVGLLIGKMVLA”: “failed”.
Next, “MPTLDALTPIFRQVFDDDSIVLTRETSANDIDAWDSLSHMNLIVSLEVHYKIKFALGELQKLKNVGDLADLVDKKLARKLEHHHHHH”: “failed”.
Under “MEASRFIEIGLLTRPHGLKGEVCVDYYADSPFLLEGTVYLKAGRAAPRPVKVQSMRMHKGRPLVIFEGVNDRTAAELLRGHVMLVPEDTLPELDEDEVYLFELEGISVVIDESGEHLGVIERIDTDAYQEIWVIRTPQGKEVLFPAAAPFVLDIDLDSRTARIAPPPGLLDIYLSD” stands “failed”; under “MDDIDSLILIGVLIALTAFFVASEFAIVRVRRSRIDQLITEGNKRAILARRVITDLDEYLSASQLGITLTSIGLGVLGEPAFERLLHPLFEPLGLPDSVSHAVSFAVAYGLITFLHVVVGELAPKTVAIQKAEQLTLLIAGPLRLFYLLLFPFIWILNGSARLLCGMFGLKPASEHDGSHSEEELRMLLSESLKNGEINPSEYKYVNKIFEFDNRIAKEIMIPRKEMAAVSTEMTMAEMLEVMLKEKYTRWPVTDGDKDSVLGLVNTKHLFSDLLFMTEEERMKMTIHPYVRPVIEVIETIPVHDLLIKMQRERIHMAILSDEYGGTSGLVTTEDILEEIVGEIRDEFDEDEQPLIQKLGDGHYVMDGKVRIDQVNSLLGASIQEDVDTIGGLILKENIDIEAGESIRIGSYTIKVLKMDGRLIKQIDIKEEAGNTTGITAHHKLPLPEPVMLNSATLSEK”, “failed”.
For “PGLSLRTLDMDRLEEEVRTVRDIYNDAWSDNWGFVPMTEGELQQLADELKQIVDPEIVFFVEHEGTPVGFSVALPDVNQALRHVPDGRLFPYGVPSGLTTLFLHMQYGVHECRMPLMGIRKDYQGKGLDSMLVLATIENGPANGYAACEMSWVLDTNDRLKNHVESLGAVVDKEYAMFETPLSQND”, the protein production result is given as “failed”.
Under “RFKQNADHIVLTHVFNGGSAESAALCPQDKIIALDGYACTDFAAQWARYHVRAKINIHFFRAGILRQTVLTVQATAADTAI” stands “failed”.
Regarding “MSDFWENELVEIAAYYSVAVLCLVLFLTVFELVTAYKNWEEIQKGNLAVAMATGGKILGIANVFQHSISQHNSLLQMIGWGVYGFVMLLISYFIFEFLTPRFKIDQEIENDNRAVGFISFVISVGLSFVVAAGI”, the protein production result is “failed”.
Next, “MKYISPGFVDAHSHIGMIPDGLEWEFQEANDFYSPIAPHLRAVDGFDPYDEAFKEAIAGGVTTVATGPGSANVMGGIGLLAKTYEEGFEKIIKPEAFIKMALGPKRPREYKSKYPYPTTRMGTVALMRTWFKRAREFMEGKIKTDNIDEEEIEMLRLLARALKREIQVKIHLSTSPDEIYAAIRIIKEFNLNATIDHAFGSQLVADMLSREGIPVIYGPPMITRIASFFRYVDDKAPVLLFKKGVNVSIMTDHPVLPEKHLRLLAAVVARNGLSLDDALKLITINPAKALGIDRFVGSLEHHHHHH”: “failed”; “DVARVQRLAAALATAGTVRDVSQAVVAALRRPLRADRIALAELENDRLVVTVLDPPDPESWPELWRLEWRTEWPDAPVRAMPTLAAALREGRARIWPAGTGDLEPALADVGPGGLAVLPLPAGGRMAGACLIGWDTPHDFGPDERALLTASAGLAGQALMRAHAFDAEHELVGMLQRQL”: “failed”.
For “MIGLSFVSLLTIVCAALGCAVLTWALMPLLIRYALARPNARSSHKVPTPQGAGIAVVAATLAVTALAVGPTTPAFLGLIPLFVAAIVIGIVGAVDDIRPIPVLPRFALQALCVGAVVLTLPSDQQIIPALPLWLERAALLIGGLWFINLVNFMDGLDWMTVAEGLPVTAALLVFGLLGALTQSPMLLAAALGGALLGFAPFNRPGAARVFLGDVGSLPIGLLLGWCLLQLALQGHVAATLLLPLYYLADSTLTLLRRMMRREPFWLAHRSHFYQRATDNGFSVREVVGLVCLTNLALAALAGVSIALNSVAADGLLLAVGAAIVAALLMRFADRKA”, the protein production result is given as “failed”.
Under “MVHETDKDPAPAVGPLASAMPRGNFAASLRSPGAKFLMIGFISLVLLVPLLLVWGLTEERASRAREVSARIANGWGGDQVVNGPYLAVPFDVERRREVDGRTIVDRTTEWALVMPETLQVTADLKTEEKKLSIYSLPVYNGALVLKGRFGQGVLQDLARFAGTPRLDNAILVLSIGDITGIRSSAGVRINGGAVLPFDPGMRDMSVIASRALENNSIRSDAGVHRQIDRNLIESGFDFDIAFSLNGSGSFAVAPAGQTTSFTAKADWPHPGFEGLFLPEVKTVTAADFNASWTIPYLARGIDRVVEGPRLPLSNSLMTINLVEPVKFYQVIARTLKYSIGFISLVFLAVFIVELKGGSVVHWIQYVLTGLALIVFYVLLLALAEHTGFTVAYAAASFSTAALIAFYLGSATRSRRNGLALFSVLAVAYGVMYLVLNEDEYALLAGAVISFIAIAATMFATRKVDWSGAGTAANSEFSSRT” stands “failed”; under “MSSTLRFHVLGRGAALPRAVAPYFVLRTDNWDDFGHRVQFHLILIVSGAPEKRIGSLKVLQRTSDKGEAMMVATDTELPSKFVELDDTFVSLGQDDDFYKKLHEALGDRAGEVLDALRDIAWRPAFASDFEPTPAFRNAMMRENGAQRARRFGRAWALGEQITERPAFDYVGTIEGADIKVEGEFDFSATDPVPGRIVGLIGRNAVGKTRYLASLGSDLAQISRRSAEALEAREARFPGGRPLFTRIIAISYSAFDRFKRPPMDSSSSYVYCGIRNDRGGLSRSALIDRYRLNQVRIRERGEQRSWMRHMKTILGDQGAQLTASLEEEIRSDSTDDSALSSLSSGQSILAHFVTALLAWIQPNSLVLFDEPETHLHPNAVASLFLVLSQVLQEFDSYAVIATHSPVVIQEIPAKRVLVFRREGNVTIAEPLLLESFGESVTELTRHVFETGEVESLYKRTLRELAAEDTVEDVLARFELGLSLSAQAYLLAQYSKKAGGRTLEHHHHHH”, “failed”.
Next, “MPDLPLAPEALDLSPAFLEVAACPACHSRFALDFDSGELVCSSPSCGLAFLVRDGVPDLRLDAARKRETGQGVTAEDTEAFEPTHRHEMRPQ”: “failed”.
As for “MAKSEEIIRERYKVMAPRIIKALNQRNFEAYFCETSEKAVECALSLIPQGASVAWGGSMTLEEIGLIQRLKEGNYQVIDRDTAKSQEERFSLMRQALLSDVYLASVNAMSEDGIMVNIDGRGNRISAIAFGPKTVILVVGMNKICRDLESARKRAHTYAAPNNALRLGLELPCTKTGCCFDCNKNNPSSICAQIVEMHSSIVPGRIKVILVGENLGL”, the protein production entry is recorded as “failed”.
Next, “MVAHSLVPLSPAAHAARLSSPSPRSLPQAPPVVLAVPPINRRTILVGLGGALWSWNALAAKEEAMAAARRPPPPPPKEKKDPTVTGVQAKVLASKKRKEEMKASIAKLREKGKPVVEAKPSSSSSE”: “failed”.
